Test results published in patent US20220096649A1 (TALLAC THERAPEUTICS, published 2022).

How the values were obtained:
Assay in all cases: SPR, antibody on GLC chip, SIRP as analyte
SIRP-α cynomolgus = target: T1, SIRP-α cynomolgus (cynomolgus, UniProt A0A2K5VYQ9 31-148)
T1 construct: Soluble analyte in SPR; also called cynomologous monkey SIRP-α
T1 sequence: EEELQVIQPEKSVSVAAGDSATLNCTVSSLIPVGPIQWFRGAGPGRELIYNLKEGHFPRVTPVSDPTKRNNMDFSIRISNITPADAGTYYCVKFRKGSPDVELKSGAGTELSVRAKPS
Method: (§1) The running buffer was PBS pH 7.4 with 0.01% TWEEN-20 (PBST+). All analytes were used at their nominal concentrations as determined by A280 absorbance and using their molar calculated extinction coefficient. Analytes were injected in a “one-shot” kinetic mode as described (see, e.g., Bravman et al., Anal. Biochem. 2006, 358, 281-288).
(§2) For the method using a GLC chip, the analytes were injected and flowed over anti-SIRPα antibodies immobilized (˜1000 RUs) on GLC chips using Proteon Amine Coupling Kit. For the immobilization step, the GLC chip was activated with EDAC/Sulpho-NHS 1:1 (Biorad) diluted 1/100 for 300 s at 25 μL/min. Anti-SIRPα antibodies were diluted to 80 nM concentration in 10 mM sodium acetate buffer pH 4.5 and immobilized to the chip at 30 μL/min for 50 s. Chip was inactivated with ethanolamine for 300 s at 25 μL/min. The analytes (e.g., SIRP-α from different species, SIRP-β, SIRP-γ) were injected in a “one-shot” kinetic mode at nominal concentrations of 100, 33, 11, 3.7, 1.2, and 0 nM. Association times were monitored for 90 s at 100 uL/min, and dissociation times were monitored for 1200 s. The surfaces were regenerated with a 2:1 v/v blend of Pierce IgG elution buffer/4M NaCl.
(§3) Biosensor data were double-referenced by subtracting the interspot data (containing no immobilized protein) from the reaction spot data (immobilized protein) and then subtracting the response of a buffer “blank” analyte injection from that of an analyte injection. Double-referenced data were fit globally to a simple Langmuir model and the KD value was calculated from the ratio of the apparent kinetic rate constants (KD=kd/kₐ).

Human SIRPβ = target: T2, Human SIRPβ (human, UniProt O00241 30-148)
T2 construct: Soluble analyte in SPR
T2 sequence (O00241 30-148): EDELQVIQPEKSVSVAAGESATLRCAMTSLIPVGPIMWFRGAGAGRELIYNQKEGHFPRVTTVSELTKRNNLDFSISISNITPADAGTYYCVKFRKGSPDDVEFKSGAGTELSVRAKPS
Method: as §1, §2, §3

SIRP-α human v2 = target: T3, SIRP-α human v2 (human, UniProt P78324 31-149, limits assumed)
T3 construct: Soluble analyte in SPR
T3 sequence (P78324 other isoform, or with tags, fused parts or gaps limits assumed): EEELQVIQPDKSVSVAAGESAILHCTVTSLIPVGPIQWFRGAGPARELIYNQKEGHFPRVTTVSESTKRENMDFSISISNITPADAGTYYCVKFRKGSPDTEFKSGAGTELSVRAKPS
Method: as §1, §2, §3

Human SIRPγ = target: T4, Human SIRPγ (human, UniProt Q9P1W8 29-147, limits assumed)
T4 construct: Soluble analyte in SPR
T4 sequence (Q9P1W8 29-147 limits assumed): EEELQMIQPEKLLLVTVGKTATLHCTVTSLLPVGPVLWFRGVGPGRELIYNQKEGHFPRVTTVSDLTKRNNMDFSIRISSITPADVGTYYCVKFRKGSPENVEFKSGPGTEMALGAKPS
Method: as §1, §2, §3

SIRP-α mouse BL6 = target: T5, SIRP-α mouse BL6 (mouse (BL6), UniProt P97797 32-150, limits assumed)
T5 construct: Soluble analyte in SPR
T5 sequence (looked up): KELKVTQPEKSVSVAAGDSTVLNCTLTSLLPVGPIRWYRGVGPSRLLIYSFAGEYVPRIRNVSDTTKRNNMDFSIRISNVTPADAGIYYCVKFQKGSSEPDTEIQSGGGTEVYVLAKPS
Method: as §1, §2, §3

| Binder | Kd (SIRP-α cynomolgus) [nM] | Kd (Human SIRPβ) [nM] | Kd (SIRP-α human v2) [nM] | Kd (Human SIRPγ) [nM] | Kd (SIRP-α mouse BL6) [nM] | binding result (SIRP-α mouse BL6) |
| --- | --- | --- | --- | --- | --- | --- |
| Hum1/AB21_HC_Mutall (antibody, V domains shown, Whole antibody) VH: EVQLVESGGGVVQPGGSLRLSCAASGFTFSSNAMSWVRQAPGKGLEWVAGISAGGSDTYYPASVKGRFTISRDNSKNTLYLQMNSLRAEDTAVYYCARETWNHLFDYWGQGTLVTVSS VL: SYELTQPPSVSVSPGQTARITCSGGSYSSYYYAWYQQKPGQAPVTLIYSDDKRPSNIPERFSGSSSGTTVTLTISGVQAEDEADYYCGGYDQSSYTNPFGGGTKLTVL | 0.029 | 0.0067 | 0.0046 | 0.001 | 9.5 | – |
| Anti-SIRP-α antibody 135, light chain wt, heavy chain Mut_V34M (antibody, V domains shown, Whole antibody) VH: EVQLVESGGGVVQPGGSLRLSCAASGFSFSIYAMSWVRQAPGKGLEWVSTIGADDTYYADSVKGRFTISRDNSKNTLYLQMNSLRAEDTAVYYCAKDSTVGWSGDFFDYWGQGTLVTVSS VL: EIVLTQSPATLSVSPGERVTFSCRASQNVRSDIAWYQQKPGQAPRLLIYAASSRDTGIPDRFSGSGSGTDFTLTISSLQSEDFGVYYCQQYYDWPPFTFGGGTKVEIK | 0.08 | 0.16 | 0.016 | 0.53 | – | no binding (tested: 100 nM (highest analyte concentration)) |
| Anti-SIRP-α antibody 135, light chain Mut, heavy chain Mut (antibody, V domains shown, Whole antibody) VH: EVQLVESGGGVVQPGGSLRLSCAASGFSFSIYAVSWVRQAPGKGLEWVSTIGADDTYYADSVKGRFTISRDNSKNTLYLQMNSLRAEDTAVYYCAKDSTVGWSGDFFDYWGQGTLVTVSS VL: EIVLTQSPATLSVSPGERVTLSCRASQNVRSDIAWYQQKPGQAPRLLIYAASSRDTGIPARFSGSGSGTDFTLTISSLQSEDFGVYYCQQYYDWPPFTFGGGTKVEIK | 0.13 | 0.19 | 0.018 | 0.73 | – | no binding (tested: 100 nM (highest analyte concentration)) |
